Assay results reported in US20140234211A1 (INVECTORS S R L, published 2014).
One block for each binder: values may come before it. Y(DOTA) = not defined here; Y(DTPA) = not defined here; AhOh = not defined here; Peg27 = L1, H-Peg27-OH

Target: T1, GRP receptor overexpressed on PC-3 cells (UniProt P30550 1-384)
T1 construct: whole, on cells; also called GRP receptors
Experiment: 111In-labelled liposomes on PC-3 cells overexpressing the GRP receptor; cell-bound radioactivity by gamma counting
Experimental: On the day of the experiment, the cell medium is removed, the cells are washed two times with fresh medium (DMEM with 1% of foetal bovine serum, pH 7.4) and incubated for at least one hour at 37° C. The cells were incubated (in triplicate) with 100 μL of liposomes labelled with indium 111/natural indium at various times (30 mins, 1 hour, 2 hours, 4 hours). The final volume is 1 mL and the final liposomal concentration is 2*10⁻⁴M. At the end of the incubation, the cell medium, containing the unbound radioactivity, is separated from the cells.
The radioactivity bound to the cells was recovered by tryptic digestion after two rapid washes with […] PBS followed by 1 hour of incubation and measured by gamma counting. The difference in binding of the liposomes containing H-L₁-Y(C)-L₂-P with the bombesin peptide, compared to when the peptide is absent, is clearly visible in FIG. 2. Experiments were conducted with various type (1) monomers in the liposomal formulation, varying the peptide sequences and the chelating agent, such as those described in examples 1a-1o. No substantial differences are found in the target selective binding properties. For example, in FIG. 2 the result for the liposomes containing monomer 1a is reported.

T1 sequence (P30550 whole entry): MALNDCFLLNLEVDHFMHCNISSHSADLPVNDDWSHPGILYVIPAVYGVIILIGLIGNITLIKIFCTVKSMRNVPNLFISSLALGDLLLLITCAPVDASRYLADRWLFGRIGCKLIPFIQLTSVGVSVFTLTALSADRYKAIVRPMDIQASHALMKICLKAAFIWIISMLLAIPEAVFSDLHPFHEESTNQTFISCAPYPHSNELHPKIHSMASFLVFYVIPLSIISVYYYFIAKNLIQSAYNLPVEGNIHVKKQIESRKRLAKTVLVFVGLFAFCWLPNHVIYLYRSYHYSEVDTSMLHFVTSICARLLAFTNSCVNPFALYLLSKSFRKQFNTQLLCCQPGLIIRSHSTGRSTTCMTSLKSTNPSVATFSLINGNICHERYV

binding result: binds
B1: monomer of formula (I) of example 1.g, H-L1-Y(C)-L2-P: P = Gln-Trp-Ala-Val-Gly-His-Leu-Nle-NH2, C = DOTA, L1 = H-Peg27-OH, L2 = H-AhOh-OH, in liposomes (peptide)
peptide: QWAVGHLX
modifications: not fully specified; Nle at position 8; C-terminal amide (NH2); N-terminal amino group amide-linked to spacer L2 (H-AhOh-OH)
notes: Chelating agent DOTA; Tested in 111In-labelled liposomes

binding result: binds
Binder: {Peg27-Y(DTPA)-AhOh}-QWAVGHLM-NH2 (reading uncertain; also: in liposomes, Tested in 111In-labelled liposomes)

binding result: binds
B2: monomer of formula (I) of example 1.a, H-L1-Y(C)-L2-P: P = Gln-Trp-Ala-Val-Gly-His-Leu-Nle-NH2, C = DTPA, L1 = H-Peg27-OH, L2 = H-AhOh-OH, in liposomes (peptide)
peptide: QWAVGHLX
modifications: not fully specified; Nle at position 8; C-terminal amide (NH2); N-terminal amino group amide-linked to spacer L2 (H-AhOh-OH) of the lipid/DTPA monomer
notes: also called monomer 1a

binding result: binds
B3: monomer of formula (I) of example 1.k, H-L1-Y(C)-L2-P: P = Gln-Trp-Ala-Val-Gly-His-Leu-Met-NH2, C = DOTA, L1 = H-Peg27-OH, L2 = H-AhOh-OH, in liposomes (peptide)
peptide: {Peg27-Y(DOTA)-AhOh}-QWAVGHLM-NH2
modifications: reading uncertain; also: in liposomes
notes: as for B1
